# Assay results: FireProtDB (doi:10.1021/bi048926x)
# Values joined by “and” are separate entries in the source; they are usually repeats but may differ in a detail not shown here. Equal entries are not always repeated.
# B1: Azurin, P00282 (parent)
# chain: MLRKLAAVSLLSLLSAPLLAAECSVDIQGNDQMQFNTNAITVDKSCKQFTVNLSHPGNLPKNVMGHNWVLSTAADMQGVVTDGMASGLDKDYLKPDDSRVIAHTKLIGSGEKDSVTFDVSKLKEGEQYMFFCTFPGHSALMKGTLTLK
# Variants of: B1
# Settings: Pseudomonas aeruginosa (strain ATCC 15692 / DSM 22644 / CIP 104116 / JCM 14847 / LMG 12228 / 1C / PRS 101 / PAO1), pH 7, Thermal, reversible: No, structure 5AZU, whole UniProt chain shown
# [1] = DSC, Potassium phosphate 100 mM
Variant,"Tm (Absorbance, Phosphate 10 mM)","change of melting temperature, mutant - wild type (higher = more stable) (Absorbance, Phosphate 10 mM)","change of melting temperature, mutant - wild type (higher = more stable) [1]",unfolding enthalpy (calorimetric) [1]
D43E K148R K44R,75 °C,-3 °C,-1.2 °C and -0.9 °C and -1.1 °C,–
D82C K94C,78 °C,0 °C,–,–
D43E K148R,74 °C,-4 °C,–,89.2 kcal/mol and 108 kcal/mol and 122 kcal/mol
K44R,76 °C,-2 °C,0.8 °C and 0.6 °C and 1 °C,124 kcal/mol and 150 kcal/mol and 75.5 kcal/mol
